Results taken from IntAct's records for PubMed 22878415.

B1: SUMO-specific isopeptidase USPL1 (Homo sapiens), Q5W0Q7 (parent)
chain: MMDSPKIGNGLPVIGPGTDIGISSLHMVGYLGKNFDSAKVPSDEYCPACREKGKLKALKTYRISFQESIFLCEDLQCIYPLGSKSLNNLISPDLEECHTPHKPQKRKSLESSYKDSLLLANSKKTRNYIAIDGGKVLNSKHNGEVYDETSSNLPDSSGQQNPIRTADSLERNEILEADTVDMATTKDPATVDVSGTGRPSPQNEGCTSKLEMPLESKCTSFPQALCVQWKNAYALCWLDCILSALVHSEELKNTVTGLCSKEESIFWRLLTKYNQANTLLYTSQLSGVKDGDCKKLTSEIFAEIETCLNEVRDEIFISLQPQLRCTLGDMESPVFAFPLLLKLETHIEKLFLYSFSWDFECSQCGHQYQNRHMKSLVTFTNVIPEWHPLNAAHFGPCNNCNSKSQIRKMVLEKVSPIFMLHFVEGLPQNDLQHYAFHFEGCLYQITSVIQYRANNHFITWILDADGSWLECDDLKGPCSERHKKFEVPASEIHIVIWERKISQVTDKEAACLPLKKTNDQHALSNEKPVSLTSCSVGDAASAETASVTHPKDISVAPRTLSQDTAVTHGDHLLSGPKGLVDNILPLTLEETIQKTASVSQLNSEAFLLENKPVAENTGILKTNTLLSQESLMASSVSAPCNEKLIQDQFVDISFPSQVVNTNMQSVQLNTEDTVNTKSVNNTDATGLIQGVKSVEIEKDAQLKQFLTPKTEQLKPERVTSQVSNLKKKETTADSQTTTSKSLQNQSLKENQKKPFVGSWVKGLISRGASFMPLCVSAHNRNTITDLQPSVKGVNNFGGFKTKGINQKASHVSKKARKSASKPPPISKPPAGPPSSNGTAAHPHAHAASEVLEKSGSTSCGAQLNHSSYGNGISSANHEDLVEGQIHKLRLKLRKKLKAEKKKLAALMSSPQSRTVRSENLEQVPQDGSPNDCESIEDLLNELPYPIDIASESACTTVPGVSLYSSQTHEEILAELLSPTPVSTELSENGEGDFRYLGMGDSHIPPPVPSEFNDVSQNTHLRQDHNYCSPTKKNPCEVQPDSLTNNACVRTLNLESPMKTDIFDEFFSSSALNALANDTLDLPHFDEYLFENY

Variants of: B1
Conditions: with sumo3_human SUMO3, P55854
Sequence of sumo3_human SUMO3, P55854 (P55854 whole entry): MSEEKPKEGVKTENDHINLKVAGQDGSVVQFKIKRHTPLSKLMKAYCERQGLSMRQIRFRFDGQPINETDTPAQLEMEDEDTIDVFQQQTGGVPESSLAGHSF

| effect of a mutation on the interaction | Variant |
| --- | --- |
| decreasing interaction | W237F |

Variants of: B1
Conditions: with sumo3_human SUMO3, P55854
Remark: another data set of the same source

| effect of a mutation on the interaction | Variant |
| --- | --- |
| disrupting interaction | W237F |

Variants of: B1
Conditions: with sumo3_human SUMO3, P55854
Remark: another data set of the same source

| effect of a mutation on the interaction | Variant |
| --- | --- |
| decreasing interaction | L341A |
| decreasing interaction | L340A |

Variants of: B1
Conditions: with sumo3_human SUMO3, P55854
Remark: another data set of the same source

| effect of a mutation on the interaction | Variant |
| --- | --- |
| disrupting interaction | L341A |
| disrupting interaction | L340A |

Variants of: B1
Conditions: with sumo3_human SUMO3, P55854
Remark: another data set of the same source

| effect of a mutation on the interaction | Variant |
| --- | --- |
| decreasing interaction | V495A |
| decreasing interaction | I494A |

Variants of: B1
Conditions: with sumo3_human SUMO3, P55854
Remark: another data set of the same source

| effect of a mutation on the interaction | Variant |
| --- | --- |
| disrupting interaction | V495A |
| disrupting interaction | I494V |

Variants of: B1
Conditions: with sumo3_human SUMO3, P55854
Remark: another data set of the same source

| effect of a mutation on the interaction | Variant |
| --- | --- |
| decreasing interaction | E331A |

Variants of: B1
Conditions: with sumo3_human SUMO3, P55854
Remark: another data set of the same source

| effect of a mutation on the interaction | Variant |
| --- | --- |
| decreasing interaction | W229L |

Variants of: B1
Conditions: with sumo3_human SUMO3, P55854
Remark: another data set of the same source

| effect of a mutation on the interaction | Variant |
| --- | --- |
| disrupting interaction | W229L |

Variants of: B1
Conditions: with sumo3_human SUMO3, P55854
Remark: another data set of the same source

| effect of a mutation on the interaction | Variant |
| --- | --- |
| decreasing interaction | H421A |
